The source of these data is PMC4497506 (Journal of medicinal chemistry, 2015).

The target of the test is wild-type HIV-1 YU-2 Env gp120, soluble monomeric (HIV-1 YU-2, UniProt P35961).

B1: mAb F105 (antibody, V domains shown)
VH: QVQLQESGPGLVKPSETLSLTCTVSGGSISSHYWSWIRQSPGKGLQWIGYIYYSGSTNYSPSLKSRVTISVETAKNQFSLKLTSMTAADTAVYYCARGPVPAVFYGDYRLDPWGQGTLVTVSS
VL: EIVLTQSPGTLSLSAGERATLSCRASQSVSSRYLAWYQQKPGQAPRLLIYGASSRATGIPDRFSGSGSGTDFTLTISRVEPEDFAVYYCQQYDNSVCTFGQGTKLEIK
Take B1: the affinity, expressed as Kd, was 24 nM.

The term Kd denotes a measure of binding affinity in units of concentration.
